Test results reported in the supplement of paper PMC6755084.

B1: F1*; the commonest letter at each place (parent)
chain: GAGACCGCAACTGAAAAGTTGTTATCACTTGTCGTAAGACACTTTGGATGGGTTGAAGTTCTGCACGTAGAAGCAAAAGGC

Variants of: B1
Test: fraction ligated after 30 min (ligated reads / total reads); higher = more ligase activity
Conditions: with F1*sub RNA substrate (template-directed ligation), 42 °C
Procedure, shortened: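 Ribozyme variants were transcribed with T7 from PCR-amplified oligo-pool templates and gel-purified. Ligated and unligated bands, separated on gel, were reverse transcribed with barcoded primers and sequenced on a MiSeq, with core bases filtered at quality ≥20. Fraction ligated per variant was computed as ligated reads divided by total reads.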

Variant | fraction ligated
A39T C40A | 0.818
A39T C40G | 0.808
A39T C40T | 0.809
G38A G46A | 0.805
G38A G46C | 0.792
G38A G46T | 0.791
A39C T43C | 0.815
A39C T43A | 0.822
A39C T43G | 0.79
A39T C42G | 0.817
A39T C42A | 0.846
A39T C42T | 0.829
A39T A48G | 0.778
A39T A48T | 0.541
A39T A48C | 0.633
A39C C42T | 0.827
A39C C42G | 0.834
A39C C42A | 0.842
A39C A57C | 0.827
A39C A57T | 0.798
A39C A57G | 0.786
A39G A57T | 0.829
A39G A57C | 0.821
A39G A57G | 0.823

Variant | fraction ligated
A39T A41T | 0.775
A39T A41G | 0.769
A39T A41C | 0.782
A39C G50A | 0.292
A39C G50T | 0.503
A39C G50C | 0.123
C40A G55A | 0.807
C40A G55C | 0.504
C40A G55T | 0.787
G38C G55C | 0.321
G38C G55A | 0.826
G38C G55T | 0.768
G38A A41T | 0.793
G38A A41C | 0.782
G38A A41G | 0.765
A39C A41T | 0.751
A39C A41C | 0.792
A39C A41G | 0.741
G38C C42A | 0.857
G38C C42G | 0.843
G38C C42T | 0.841
G38A T43C | 0.816
G38A T43A | 0.835
G38A T43G | 0.8

Variant | fraction ligated
C40G C42G | 0.826
C40G C42T | 0.8
C40G C42A | 0.82
A39C G55C | 0.695
A39C G55T | 0.802
A39C G55A | 0.821
C40G A57T | 0.79
C40G A57G | 0.8
C40G A57C | 0.788
C40A C42T | 0.818
C40A C42G | 0.803
C40A C42A | 0.821
A39C T44A | 0.799
A39C T44C | 0.797
A39C T44G | 0.801
G38C A39G | 0.811
G38C A39T | 0.806
G38C A39C | 0.752
G38T A56T | 0.826
G38T A56G | 0.806
G38T A56C | 0.745
A39T G46A | 0.805
A39T G46C | 0.64
A39T G46T | 0.771

Variant | fraction ligated
A39G C40A | 0.839
A39G C40G | 0.802
A39G C40T | 0.844
C40A G47A | 0.769
C40A G47T | 0.341
C40A G47C | 0.25
G38A G55A | 0.838
G38A G55C | 0.781
G38A G55T | 0.811
G38T C42T | 0.851
G38T C42A | 0.842
G38T C42G | 0.845
G38C T45G | 0.0325
G38C T45C | 0.0602
G38C T45A | 0.551
G38T A41G | 0.792
G38T A41T | 0.798
G38T A41C | 0.785
C40A T49C | 0.116
C40A T49A | 0.517
C40A T49G | 0.674
A39G T44G | 0.836
A39G T44A | 0.816
A39G T44C | 0.849

Variant | fraction ligated
A39T T49A | 0.717
A39T T49C | 0.0992
A39T T49G | 0.769
G38A A56T | 0.808
G38A A56C | 0.778
G38A A56G | 0.783
A39G G47C | 0.343
A39G G47T | 0.389
A39G G47A | 0.795
G38T T45G | 0.0535
G38T T45A | 0.783
G38T T45C | 0.627
A39T A56G | 0.78
A39T A56C | 0.761
A39T A56T | 0.807
G38A T44G | 0.848
G38A T44C | 0.818
G38A T44A | 0.838
C40G A56T | 0.805
C40G A56C | 0.784
C40G A56G | 0.766
C40A T44G | 0.779
C40A T44A | 0.823
C40A T44C | 0.794

Variant | fraction ligated
C40G G47A | 0.783
C40A A48G | 0.739
C40A A48T | 0.0719
C40A A48C | 0.658
G38A C40A | 0.83
G38A C40T | 0.833
G38A C40G | 0.843
G38T A39C | 0.79
G38T A39T | 0.817
G38T A39G | 0.798
A39G T45A | 0.784
A39G T45C | 0.792
A39G T45G | 0.389
G38T A57G | 0.862
G38T A57C | 0.811
G38T A57T | 0.812
A39G C42A | 0.829
A39G C42G | 0.834
A39G C42T | 0.843
A39T T45G | 0.1
A39T T45A | 0.744
A39T T45C | 0.676
C40G A48G | 0.786
C40G A48C | 0.768

Variant | fraction ligated
C40G A48T | 0.715
G38C G47A | 0.306
G38C G47C | 0.0356
G38C G47T | 0.045
A37T T44G | 0.825
G38C G50T | 0.314
G38C G50A | 0.101
G38C G50C | 0.0192
A37T T49C | 0.733
A37T T49A | 0.802
A37T T49G | 0.791
A39G G50A | 0.671
A39G G50T | 0.789
A39G G50C | 0.507
A39T G50A | 0.239
A39T G50C | 0.0837
A39T G50T | 0.413
C40A A56G | 0.785
C40A A56T | 0.812
C40A A56C | 0.711
A39C A56T | 0.771
A39C A56G | 0.779
A39C A56C | 0.746
